In publication PMC3618186 (2013):

Biological target: the molecule itself
Assay: sedimentation equilibrium AUC

B1: p150Glued CC1 CC1 (protein)
chain: SKEEEGLRAQVRDLEEKLETLRLKRAEDKAKLKELEKHKIQLEQVQEWKSKMQEQQADLQRRLKEARKEAKEALEAKERYMEEMADTADAIEMATLDKEMAEERAESLQQEVEALKERVDELTTDLEILKAEIEEKGSDGAASSYQLKQLEEQNARLKDALVRMRDLSSSEKQEHVKLQKLMEKKNQELEVVRQQRERLQEELSQAESTIDELKEQVDAALGAEEMVEMLTDRNLNLEEKVRELRETVGDLEAMNEMNDELQENARETELELREQLDMAGARVREAQKRVEAAQETVADYQQTIKKYRQLTAHLQDVNRELTNQQEASVERQQQ
- Kd: < 1 nM
